The record followed here is article PMC11543927, “Subtleties in Clathrin heavy chain binding boxes provide selectivity among adaptor proteins of budding yeast” (Nature Communications, 2024).

The test system of experiment [1] is Abp1-mTurquoise2 at endocytic sites. Nature of the experiment: Lifetime TIRF microscopy, Abp1+ / Abp1- endocytic events of Ent1/Ent2-mNeonGreen. In kind it is cell-based, Saccharomyces cerevisiae. Particulars: Supp. Figure 12; Ent1-mNeonGreen in yeast strains with Chc WT or box mutants (Cla, Cla + Arr, Cla + W); Type ABP+; average of single points. Here is the method:
To determine the effect of mutating the CHC-NTD Clathrin, Arrestin and W-boxes in how endocytosis progresses, cells tagged with Ent1/2p-mNeonGreen, Chc-mScarlet and Abp1-mTurquoise2 were used. Yeast cells previously described were grown overnight at 30 °C with shaking in a 24-well plate using LD(=low-fluorescence SD)-Trp^-, Leu^- medium (yeast nitrogen base without amino acids supplemented with the corresponding DropOut media, Foredium, CYN402). Cells were diluted in fresh medium with a starting OD600nm of 0.1 and allowed to grow at 30 °C with shaking for several hours (4-6hs) until they reached log phase (OD600nm 0.6-1.2). Micro slide 8-well glass bottom plates (Catalog 80807, Ibidi, Gräfelfing, Germany) were treated with 50 µL of a 1 mg/ml concanavalin A (prepared in 10 mM sodium phosphate buffer pH 6, 10 mM CaCl2,1 mM MnCl2, 0.01% NaN3, Catalog C2010, Sigma Aldrich) solution, incubated for 5 min and then washed twice with 50 µL of fresh medium. 50 µL of cell suspension was applied, incubated for 5 min and removed. Then each well was washed twice with 50 µL of fresh medium. Finally, 50 µL of fresh medium was added. […]

The target of experiment [2] is T1, Clathrin heavy chain fused to mScarlet (Chc-mScarlet), wild type (Saccharomyces cerevisiae, UniProt P22137 1-1653).
T1 construct: Clathrin heavy chain, Saccharomyces cerevisiae, the ORF of CHC1 fused in the 3' with mScarlet; also called Chc1-mScarlet; ScCHC-mScarlet; not shown: mScarlet, C-terminal, kept
The experiment is described as follows: FRET or BRET; acceptor photobleaching FRET in living yeast cells at endocytic patches stalled with Latrunculin A, donor mNeonGreen on Ent1/Ent2, acceptor mScarlet on Chc, 21 °C; trimmed mean FRET efficiency. Particulars: partners not purified.

Experiment [3] concerns the target T2, Chc-mScarlet Clathrin box mutant (K63E, I87D, Q89A, K98E) (Saccharomyces cerevisiae, UniProt P22137 1-1653, K63E | I87D | Q89A | K98E).
T2 construct: Clathrin heavy chain, Saccharomyces cerevisiae, the ORF of CHC1 fused in the 3' with mScarlet, Clathrin box mutant; also called Cla mutant; source: S. cerevisiae MK100, mutated plasmid pRS315-5'UTR CHC-mScarlet, endogenous CHC1 knocked out, in living cells; not shown: mScarlet, C-terminal, kept
The description is as above. The settings on record: partners not purified.

Experiment [4] has as its target T3, Chc-mScarlet Clathrin and Arrestin box mutant (Cla+Arr) (Saccharomyces cerevisiae, UniProt P22137 1-1653, K63E | I87D | Q89A | K98E | Q195A | I197T | K251E).
T3 construct: Clathrin heavy chain, Saccharomyces cerevisiae, the ORF of CHC1 fused in the 3' with mScarlet, Clathrin and Arrestin box mutant; source: S. cerevisiae MK100, mutated plasmid pRS315-5'UTR CHC-mScarlet, endogenous CHC1 knocked out, in living cells; not shown: mScarlet, C-terminal, kept
Described as above. Particulars: partners not purified.

Experiment [5] has as its target T4, Chc-mScarlet Clathrin and W box mutant (Cla+W) (Saccharomyces cerevisiae, UniProt P22137 1-1653, F26A | K63E | I87D | Q89A | K98E | Q155A).
T4 construct: Clathrin heavy chain, Saccharomyces cerevisiae, the ORF of CHC1 fused in the 3' with mScarlet, Clathrin and W box mutant; source: S. cerevisiae MK100, mutated plasmid pRS315-5'UTR CHC-mScarlet, endogenous CHC1 knocked out, in living cells; not shown: mScarlet, C-terminal, kept
Described as above. Particulars: partners not purified.

The target of experiment [6] is T5, Chc-mScarlet Clathrin, Arrestin and W box mutant (Cla+Arr+W) (Saccharomyces cerevisiae, UniProt P22137 1-1653, F26A | K63E | I87D | Q89A | K98E | Q155A | Q195A | I197T | K251E).
T5 construct: Clathrin heavy chain, Saccharomyces cerevisiae, the ORF of CHC1 fused in the 3' with mScarlet, Clathrin, Arrestin and W box mutant; also called triple mutant; source: S. cerevisiae MK100, mutated plasmid pRS315-5'UTR CHC-mScarlet, endogenous CHC1 knocked out, in living cells; not shown: mScarlet, C-terminal, kept
Described as above. The settings on record: partners not purified.

T1 sequence (P22137 whole entry, the tested form may be a part): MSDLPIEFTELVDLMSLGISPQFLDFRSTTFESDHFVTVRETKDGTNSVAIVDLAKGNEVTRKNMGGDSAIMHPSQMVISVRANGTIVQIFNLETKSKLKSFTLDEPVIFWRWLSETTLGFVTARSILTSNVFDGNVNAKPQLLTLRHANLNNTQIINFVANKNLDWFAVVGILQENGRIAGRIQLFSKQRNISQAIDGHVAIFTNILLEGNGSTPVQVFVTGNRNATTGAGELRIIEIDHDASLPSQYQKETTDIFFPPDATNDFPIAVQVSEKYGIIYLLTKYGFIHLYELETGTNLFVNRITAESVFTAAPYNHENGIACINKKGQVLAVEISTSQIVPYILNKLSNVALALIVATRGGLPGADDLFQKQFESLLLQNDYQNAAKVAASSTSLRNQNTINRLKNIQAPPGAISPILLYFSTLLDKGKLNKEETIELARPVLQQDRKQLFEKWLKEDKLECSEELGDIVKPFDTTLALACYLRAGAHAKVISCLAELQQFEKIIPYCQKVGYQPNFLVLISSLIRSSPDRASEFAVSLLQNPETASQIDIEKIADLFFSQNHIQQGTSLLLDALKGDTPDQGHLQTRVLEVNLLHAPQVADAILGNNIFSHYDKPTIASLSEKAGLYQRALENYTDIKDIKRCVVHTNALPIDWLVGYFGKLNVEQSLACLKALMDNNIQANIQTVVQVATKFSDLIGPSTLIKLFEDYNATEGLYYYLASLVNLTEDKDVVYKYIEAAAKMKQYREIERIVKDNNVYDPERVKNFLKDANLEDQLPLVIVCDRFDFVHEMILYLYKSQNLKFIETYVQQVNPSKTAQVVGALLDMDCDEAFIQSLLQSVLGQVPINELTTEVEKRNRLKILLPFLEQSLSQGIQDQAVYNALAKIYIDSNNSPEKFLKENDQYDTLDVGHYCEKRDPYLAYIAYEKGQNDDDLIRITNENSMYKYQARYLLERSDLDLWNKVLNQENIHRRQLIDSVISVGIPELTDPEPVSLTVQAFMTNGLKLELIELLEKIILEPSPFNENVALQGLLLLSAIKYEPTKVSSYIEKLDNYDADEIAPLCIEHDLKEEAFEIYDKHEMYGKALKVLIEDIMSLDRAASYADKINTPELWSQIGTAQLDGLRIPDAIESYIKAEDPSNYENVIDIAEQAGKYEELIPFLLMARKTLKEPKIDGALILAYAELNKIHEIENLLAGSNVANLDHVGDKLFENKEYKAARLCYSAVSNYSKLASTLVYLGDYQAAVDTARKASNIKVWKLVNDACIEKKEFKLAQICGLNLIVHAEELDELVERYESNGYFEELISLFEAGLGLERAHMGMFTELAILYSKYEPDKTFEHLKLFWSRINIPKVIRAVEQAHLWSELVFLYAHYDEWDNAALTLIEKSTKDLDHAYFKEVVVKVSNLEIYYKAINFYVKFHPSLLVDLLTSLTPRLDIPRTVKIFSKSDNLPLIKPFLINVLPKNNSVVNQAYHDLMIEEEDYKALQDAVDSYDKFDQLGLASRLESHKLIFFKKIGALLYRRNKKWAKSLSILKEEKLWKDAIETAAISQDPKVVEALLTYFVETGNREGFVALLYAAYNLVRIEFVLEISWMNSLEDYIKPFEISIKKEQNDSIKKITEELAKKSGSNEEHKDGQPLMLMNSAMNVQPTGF
T3 sequence (P22137 whole entry K63E/I87D/Q89A/K98E/Q195A/I197T/K251E, the tested form may be a part): as the sequence (P22137 whole entry, the tested form may be a part) above, with K63E, I87D, Q89A, K98E, Q195A, I197T, K251E counted along it
T2 sequence (P22137 whole entry K63E/I87D/Q89A/K98E, the tested form may be a part): as the sequence (P22137 whole entry, the tested form may be a part) above, with K63E, I87D, Q89A, K98E counted along it
T5 sequence (P22137 whole entry F26A/K63E/I87D/Q89A/K98E/Q155A/Q195A/I197T/K251E, the tested form may be a part): as the sequence (P22137 whole entry, the tested form may be a part) above, with F26A, K63E, I87D, Q89A, K98E, Q155A, Q195A, I197T, K251E counted along it
T4 sequence (P22137 whole entry F26A/K63E/I87D/Q89A/K98E/Q155A, the tested form may be a part): as the sequence (P22137 whole entry, the tested form may be a part) above, with F26A, K63E, I87D, Q89A, K98E, Q155A counted along it

B1: Ent1 endogenously tagged with mNeonGreen (Ent1-mNeonGreen) (natural protein, UniProt Q12518 1-454, looked up)
chain: MSKQFVRSAKNLVKGYSSTQVLVRNATSNDNHQVSKDSLIELAEKSYDSADFFEIMDMLDKRLNDKGKYWRHIAKALTVIDYLIRFGSENCVLWCRENLYIIKTLKEFRHEDDEGIDQGQIVRVKAKELTALLSDDERLNEERNMNIKGRNRKGRRRRGTGRSDENDDDLQRAISASRLTAEEDERRRKQDEDYETALQLSKEEEELKRLQDLQRMQQQQGQQQLQQPMYYDIFGNPITPEEYAQFQLQQQQQQQQQQLQQQPMYYDVFGNPITPEELAQFQQQQQLQEQQYLASMQQQQQAMSNNPFAKSEQSSSSPKRNQLVAASSPQQLQQQKQQEPLIQNRTGNQSMTDKYSKLNELLATGTGIDTFGNVGEARIPAQHTKTGTFINSQGTGYRQVSDDPNHNPFLNSQYTGLPSTSVVPTQTGYGFGNQSQQQSQNNGSNNRGYTLIDL
notes: epsin Ent1, Saccharomyces cerevisiae, endogenous locus tagged with mNeonGreen; also called Ent1p; source: endogenously tagged, S. cerevisiae MK100, in living cells
Take B1: the “Frequency of ABP+ (Abp1-positive) endocytic events, Average” value in experiment [1] is reported as 33.3. Besides, the FRET efficiency in experiment [2] is approximately 8%; in experiment [3] it was approximately 5%; in experiment [4], 5.25%; in experiment [5] it was 5.93%; in experiment [6], 4.66%.
